The results in this text go back to patent publication US20200017851A1.

In assay [1] the target is mesothelin (MSLN) (UniProt Q13421). In words: virus binding to Panc-1 cells (MSLN strongly-positive), 4 C, E4 qPCR; reference AdMG553 (Ad5/Ad3 fiber).
Assay [2] shares this target. In words: virus binding to Panc-1 cells (MSLN strongly-positive), 4 C, E4 qPCR; reference AdML-5WT (native Ad5 fiber).

In turn, “AdML-VTIN (isolated adenovirus with the VTINRSA (SEQ ID NO:12) motif in the AB-loop of the fiber knob) (from UniProt P11818 1-410; P11818 418-581)” had a fold binding ability against AdMG553 with mesothelin (MSLN) [1] of 2 fold. The substance also displayed a fold binding ability against AdML-5WT with mesothelin (MSLN) [2] of 5 fold.
